Measurements taken from article PMC9579160.
Each block holds one molecule with its values, some of them ahead of it.

Assays:
[1] = target: His-tag-fused PHR domain of CraCRY (M1-A489) (C. reinhardtii); experiment: SEC; lit (blue light); inline SEC of the SAXS runs, Superdex 200, 50 mM HEPES pH 7.4, 150 mM NaCl, 5% glycerol, 25 °C, 2 to 10 mg/mL
[2] = target: His-tag-fused full-length wild-type CraCRY (C. reinhardtii animal-like cryptochrome) (C. reinhardtii); experiment: as above
[3] = target: Strep-tag-fused CraCRY::mCitrine (C. reinhardtii); experiment: single-molecule photobleaching step counting; lit (blue light): photobleaching steps of CraCRY::mCitrine protein complexes counted by TIRF microscopy
[4] = target: Strep-tag-fused CraCRY::mCitrine (C. reinhardtii); experiment: single-molecule pull-down (TIRF colocalisation with photobleaching step counting); lit (blue light, 450 nm): Strep-tag-fused CraCRY::mCitrine tethered to the glass slide by streptavidin as bait, ROC15(GARP)::mCherry as prey
[5] = target: Strep-tag-fused CraCRY::mCitrine (C. reinhardtii); experiment: as above; remark: listed apart in the source

Molecule: His-tag-fused PHR domain of CraCRY (M1-A489) (domain or fragment)
stoichiometry N [1]: 2

B1: ROC15(GARP)::mCherry (domain or fragment)
chain: MGEEYADDGTTRAVKRPRLVWTPQLHRKFESAVIKLGEDKAVPKTIMQEMNIDGLTRENVASHLQKYRM
fraction of interacting CraCRY (colocalization) [5]: 23.3%
percentage of interaction between ROC15 and CraCRY monomers [5]: 25.1%

The next lines start with the values.

stoichiometry N [2]: 2
Molecule: His-tag-fused full-length wild-type CraCRY (C. reinhardtii animal-like cryptochrome) (natural protein)

population of two-step bleaching [3]: 25.1%
dimer fraction without colocalized ROC15 [4]: 15.5%
Molecule: Strep-tag-fused CraCRY::mCitrine (natural protein)
